Results taken from PMC11277499, “Structural Basis for the Interaction between the Ezrin FERM-Domain and Human Aquaporins” (International Journal of Molecular Sciences, 2024).
Residues, ends and D or L forms follow the SMILES beside them.

What was measured:
[1] = target: T1, human ezrin FERM-domain (residues 1–295) (Homo sapiens, UniProt P15311); experiment: Microscale thermophoresis (MST), binding to FERM-Alexa488; conditions: Z-test for population means; for Affinity for FERM, full-length AQP compared with its C-terminal tail: significant if p < 0.05
T1 construct: human ezrin FERM-domain (residues 1–295); 8xHis-tag (N); TEV cleavage site (N); made in house; host or cells: E. coli BL21*
T1 sequence (P15311 1-295): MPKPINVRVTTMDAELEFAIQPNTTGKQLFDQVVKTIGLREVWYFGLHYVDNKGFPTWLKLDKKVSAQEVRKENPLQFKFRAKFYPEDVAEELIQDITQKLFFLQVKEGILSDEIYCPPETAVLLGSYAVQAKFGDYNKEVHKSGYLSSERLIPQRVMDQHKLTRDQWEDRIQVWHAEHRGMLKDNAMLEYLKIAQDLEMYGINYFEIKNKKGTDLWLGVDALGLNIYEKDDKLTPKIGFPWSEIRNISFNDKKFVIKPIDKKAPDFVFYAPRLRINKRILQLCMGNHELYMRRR
Method: For each AQP, a 1:1 dilution series was made resulting in 12 samples with a concentration range of 0.0419–86.0 μM for AQP2 and 0.029–60.6 μM for AQP5. The samples were mixed with an equal volume of FERM that had been labelled with Alexa-488, transferred to MST capillaries, and MST traces were recorded (Figure S1). From these traces, the difference in normalized fluorescence before and after heating was used to generate a binding curve for each AQP from which the dissociation constant (Kd) could be determined (Figure 3a).
This artefact became even more prominent when the AQP concentration was increased further. As a result, AQP concentrations that would lead to saturation could not be used in the case of AQP5, wherefore the estimated Kd-value should be evaluated with caution.
Next, we set out to investigate if the interaction between FERM and AQP2/AQP5 is mediated by the AQP C-termini as previously proposed. For this purpose, we expressed the AQP2 and AQP5 C-terminal tails (residues 227–271 and 228–265 for AQP2 and AQP5 respectively) as GST-fusion constructs in E. coli. The purified GST-AQP constructs were then cleaved with thrombin, allowing AQP2 and AQP5 C-termini to be separated from the GST-tag. For each AQP C-terminal peptide, a 1:1 dilution series was made resulting in 12 samples for AQP2 (0.072–294.5 μM) and 16 samples (0.001–337.5 μM) for AQP5, mixed with fluorescently labelled FERM, and MST-traces were recorded and analyzed as described above (Figure S1). […] This confirms the C-terminus as the region responsible for the FERM-interaction for both AQP2 and AQP5.
The E. coli codon-optimized gene for the human ezrin FERM-domain (residues 1–295) was synthesized (Genscript, Piscataway, NJ, USA) and cloned into pET15b using the NdeI and BamHI sites. The final construct contained an N-terminal 8xHis-tag followed by a TEV cleavage site. The plasmid was transformed into calcium-competent E. coli cells BL21* by heat shock. 2x1L LB-media supplemented with 100 μg/mL ampicillin was inoculated with a 5 mL overnight culture. […]

Ezrin = conditions: co-IP and PLA, NS-SV-AC cells; ref [31]; cited from earlier work
From the text: (§1) Several mammalian AQP isoforms have been proposed to directly interact with Ezrin during trafficking.

[2] = target: T2, human ezrin FERM-domain (residues 1-295), labelled with Alexa-488 (human, UniProt P15311 1-295, cysteine-reactive C5 maleimide-Alexa 488 on cysteines); experiment: MST; AQP (full-length or C-terminal peptide) in a 1:1 dilution series mixed with FERM-Alexa488 at 0.125 uM (0.129 uM for the AQP5 C-terminus); Monolith NT.115, room temperature, LED and MST power 80%; premium capillaries (full-length AQP) or standard capillaries (peptides); three dilution series; one-to-one binding model on monomeric AQP concentration; conditions: both partners purified
T2 construct: ezrin, human, FERM-domain, residues 1-295; the construct has an N-terminal 8xHis-tag followed by a TEV cleavage site; No TEV cleavage is described in the purification; codon-optimised synthetic gene in pET15b; also called FERM-Alexa488; source: E. coli BL21*, purified (His-trap)
T2 sequence (P15311 1-295): as above

Ezrin FERM-domain = conditions: co-IP and pull-down; ref [30]; cited from earlier work
From the text: as §1

LIP5 = conditions: compared with construct truncated immediately after the amphipathic helix; ref [36] Roche et al., 2017; cited from earlier work
From the text: Moreover, introduction of pho ...

Molecule | Affinity for FERM, full-length AQP compared with its C-terminal tail [1] | Kd [2] | further results
CC[C@H](C)[C@H](NC(=O)[C@H](C)NC(=O)[C@@H](NC(=O)[C@H](CCCNC(=N)N)NC(=O)[C@H](CCC(=O)O)NC(=O)[C@H](CO)NC(=O)[C@H](CC(C)C)NC(=O)[C@H](CO)NC(=O)[C@H](CC(C)C)NC(=O)[C@H](CO)NC(=O)[C@H](CC(N)=O)NC(=O)[C@H](CO)NC(=O)CN)C(C)C)C(=O)N[C@H](C(=O)N[C@@H](CCCCN)C(=O)NCC(=O)N[C@H](C(=O)N[C@@H](Cc1ccc(O)cc1)C(=O)N[C@@H](CCC(=O)O)C(=O)N1CCC[C@H]1C(=O)N[C@@H](CC(=O)O)C(=O)N[C@@H](CCC(=O)O)C(=O)N[C@@H](CC(=O)O)C(=O)N[C@@H](Cc1c[nH]c2ccccc12)C(=O)N[C@@H](CCC(=O)O)C(=O)N[C@@H](CCC(=O)O)C(=O)N[C@@H](CCC(N)=O)C(=O)N[C@@H](CCCNC(=N)N)C(=O)N[C@@H](CCC(=O)O)C(=O)N[C@@H](CCC(=O)O)C(=O)N[C@@H](CCCNC(=N)N)C(=O)N[C@@H](CCCCN)C(=O)N[C@@H](CCCCN)C(=O)N[C@H](C(=O)N[C@@H](CCSC)C(=O)N[C@@H](CCC(=O)O)C(=O)N[C@@H](CC(C)C)C(=O)N[C@H](C(=O)N[C@H](C(=O)N[C@@H](CCCNC(=N)N)C(=O)O)[C@@H](C)O)[C@@H](C)O)[C@@H](C)O)[C@@H](C)O)[C@@H](C)CC [AQP5 C-terminal peptide] (H-GSNSLSLSERVAIIKGTYEPDEDWEEQREERKKTMELTTR-OH; N-terminus and C-terminus assumed) |  |  | Affinity for FERM, AQP5 C-terminal peptide compared with AQP2 C-terminal peptide [1]: somewhat higher (p < 0.05)
full-length AQP5: human aquaporin 5, untagged, recombinantly produced in Pichia pastoris | significant difference between full-length AQP5 and the AQP5 C-terminal tail (p < 0.05) |  | Interaction of AQP5 with ezrin (Ezrin): identified an interaction
NSLSLSERVAIIKGTYEPDEDWEEQREERKKTMELTTR (peptide, UniProt P55064 228-265, looked up, aquaporin 5, human, C-terminal tail, residues 228-265; Cloned into pET41a (SpeI, AvrII) with a thrombin site (LVPRGS) between GST and the AQP5 C-terminus; also called AQP5 C-terminal peptide; AQP5 C-terminus; source: E. coli BL21*, GST fusion purified (GSTrap), cleaved with thrombin, separated from GST) [AQP5 C-terminal tail (residues 228-265)] |  | 2.9 ± 0.89 µM | 
full-length human AQP2 (natural protein, UniProt P41181 1-271, looked up, aquaporin 2, human, full-length, with an uncleavable His-tag attached to the N-terminus; kept in detergent (0.2% NG); The Kd is fitted on the monomeric AQP concentration; also called Aquaporin 2; source: Pichia pastoris, purified (NG-solubilised membranes, HisTrap, SEC); not shown: His-tag, N-terminal, kept) MWELRSIAFSRAVFAEFLATLLFVFFGLGSALNWPQALPSVLQIAMAFGLGIGTLVQALGHISGAHINPAVTVACLVGCHVSVLRAAFYVAAQLLGAVAGAALLHEITPADIRGDLAVNALSNSTTAGQAVTVELFLTLQLVLCIFASTDERRGENPGTPALSIGFSVALGHLLGIHYTGCSMNPARSLAPAVVTGKFDDHWVFWIGPLVGAILGSLLYNYVLFPPAKSLSERLAVLKGLEPDTDWEEREVRRRQSVELHSPQSLPRGTKA |  | 7.8 ± 3.8 µM | 
full-length AQP2: human aquaporin 2, recombinantly produced in Pichia pastoris, His-tag at the N-terminus (protein, left off: His-tag, N-terminal, kept, human aquaporin 2, recombinantly produced in Pichia pastoris, His-tag at the N-terminus) MWELRSIAFSRAVFAEFLATLLFVFFGLGSALNWPQALPSVLQIAMAFGLGIGTLVQALGHISGAHINPAVTVACLVGCHVSVLRAAFYVAAQLLGAVAGAALLHEITPADIRGDLAVNALSNSTTAGQAVTVELFLTLQLVLCIFASTDERRGENPGTPALSIGFSVALGHLLGIHYTGCSMNPARSLAPAVVTGKFDDHWVFWIGPLVGAILGSLLYNYVLFPPAKSLSERLAVLKGLEPDTDWEEREVRRRQSVELHSPQSLPRGTKA | highly similar |  | Interaction of AQP2 C-terminal tail with ezrin FERM-domain (Ezrin FERM-domain): direct interaction; Affinity for LIP5 (LIP5): higher affinity
AKSLSERLAVLKGLEPDTDWEEREVRRRQSVELHSPQSLPRGTKA (peptide, UniProt P41181 227-271, looked up, aquaporin 2, human, C-terminal tail, residues 227-271; also called AQP2 C-terminal peptide; AQP2 C-terminus; source: E. coli BL21*, GST fusion purified (GSTrap), cleaved with thrombin, separated from GST) [AQP2 C-terminal tail (residues 227-271)] |  | 8.7 ± 2.4 µM | 
